Where two headings read alike, the source gives them in different places. Each block holds one molecule with its values, some of them ahead of it.
Columns and labels:
[1] = target: T1, native human NRP-1 on the cell surface (human, UniProt O14786 22-923); assay: flow cytometry, CTC cells mix, 10 ug/ml
T1 construct: whole, on cells; endogenous protein; isoform and glycosaminoglycan state on the cells not defined; also called native NRP-1 on MDA-MB-231 cells; native form of NRP-1 protein on the CTCs cell surface

[2] = target: T1, native human NRP-1 on the cell surface; assay: flow cytometry, CTC cells mix, 25 ug/ml
[3] = target: T1, native human NRP-1 on the cell surface; assay: flow cytometry, CTC cells mix, 50 ug/ml
[4] = target: T1, native human NRP-1 on the cell surface; assay: flow cytometry, MDA-MB-231 cells, 10 ug/ml, +heparinase
[5] = target: T1, native human NRP-1 on the cell surface; assay: flow cytometry, MDA-MB-231 cells, 10 ug/ml, -heparinase
[6] = target: T1, native human NRP-1 on the cell surface; assay: flow cytometry, MDA-MB-231 cells, 40 ug/ml, +chondroitinase
[7] = target: T1, native human NRP-1 on the cell surface; assay: flow cytometry, MDA-MB-231 cells, 40 ug/ml, -chondroitinase
NRP-1 peptide (Npep) [8] = target: T2, NRP-1 peptide (Npep); assay: ELISA, antibody 10 µg/ml, 2 µg immobilised Npep
T2 sequence (peptide): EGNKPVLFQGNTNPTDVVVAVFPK

[9] = target: recombinant human NRP-1 (3870-N1-025, Bio-Techne) (human) (UniProt O14786); assay: ELISA, antibody 10 µg/ml, 1 µg immobilised human NRP-1
[10] = target: recombinant murine NRP-1 (5994-N1-050, Bio-Techne) (murine) (UniProt P97333); assay: ELISA, antibody 10 µg/ml, 1 µg immobilised murine NRP-1
NRP-1 peptide (Npep) [11] = target: T3, NRP-1 peptide (Npep); assay: ELISA, antibody 10 µg/ml, 2 µg immobilised Npep
T3 construct: also called synthetic peptide Npep
T3 peptide: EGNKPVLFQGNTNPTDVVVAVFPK

[12] = target: T4, recombinant human NRP-1 (3870-N1-025, Bio-Techne) (human, UniProt O14786 22-856); assay: ELISA, antibody 10 µg/ml, 1 µg immobilised human NRP-1
T4 construct: extracellular domain; bought protein; also called human recombinant NRP-1

[13] = target: T5, recombinant murine NRP-1 (5994-N1-050, Bio-Techne) (murine, UniProt P97333 22-856); assay: ELISA, antibody 10 µg/ml, 1 µg immobilised murine NRP-1
T5 construct: extracellular domain; bought protein; also called mouse recombinant NRP-1

[14] = target: T1, native human NRP-1 on the cell surface; assay: flow cytometry, MDA-MB-231 cells, 10 ug/ml, +heparinase; remark: listed apart in the source
[15] = target: T1, native human NRP-1 on the cell surface; assay: flow cytometry, MDA-MB-231 cells, 10 ug/ml, -heparinase; remark: listed apart in the source
[16] = target: T1, native human NRP-1 on the cell surface; assay: flow cytometry, MDA-MB-231 cells, 40 ug/ml, +chondroitinase; remark: listed apart in the source
Description: (§1) Chondroitinase (C2905, Sigma) was reconstituted in a 0.01% BSA aqueous solution. The MDA-MB-231 cells were treated with chondroitinase (1 U/ml) for 2 hours at 37° C. The cells were detached using cell dissociation solution non-enzymatic (C5914, Sigma). 300,000 cells per condition were washed with 2% FBS in PBS and then incubated with different antibodies of interest or their respective isotype controls at 40 μg/ml for 30 min at 4° C. After wash, an Alexa 488-conjugated anti-human immunoglobulin antibody (20022-1, Biotium) was added at 10 μg/ml for 30 min at 4° C. After a final wash, fluorescence, size and granularity of cells were measured by the LSR Fortessa cytometer (BD Biosciences).

[17] = target: T1, native human NRP-1 on the cell surface; assay: flow cytometry, MDA-MB-231 cells, 40 ug/ml, -chondroitinase; remark: listed apart in the source
Description: as §1

[18] = target: T1, native human NRP-1 on the cell surface; assay: flow cytometry, MDA-MB-231 cells, 10 ug/ml, with against without heparinase
[19] = target: T1, native human NRP-1 on the cell surface; assay: flow cytometry, MDA-MB-231 cells, 40 ug/ml, with against without chondroitinase
Description: as §1

[20] = target: native human NRP-1 on the cell surface (human) (UniProt O14786); assay: flow cytometry, MDA-MB-231 cells, 10 ug/ml, +heparinase
[21] = target: native human NRP-1 on the cell surface (human) (UniProt O14786); assay: flow cytometry, MDA-MB-231 cells, 10 ug/ml, -heparinase
[22] = target: native human NRP-1 on the cell surface (human) (UniProt O14786); assay: flow cytometry, MDA-MB-231 cells, 40 ug/ml, +chondroitinase
[23] = target: native human NRP-1 on the cell surface (human) (UniProt O14786); assay: flow cytometry, MDA-MB-231 cells, 40 ug/ml, -chondroitinase
[24] = target: native human NRP-1 on the cell surface (human) (UniProt O14786); assay: flow cytometry, MDA-MB-231 cells, 10 ug/ml, with against without heparinase
[25] = target: native human NRP-1 on the cell surface (human) (UniProt O14786); assay: flow cytometry, MDA-MB-231 cells, 40 ug/ml, with against without chondroitinase

Chain of recombinant murine NRP-1 (5994-N1-050, Bio-Techne) (murine) (P97333 22-856): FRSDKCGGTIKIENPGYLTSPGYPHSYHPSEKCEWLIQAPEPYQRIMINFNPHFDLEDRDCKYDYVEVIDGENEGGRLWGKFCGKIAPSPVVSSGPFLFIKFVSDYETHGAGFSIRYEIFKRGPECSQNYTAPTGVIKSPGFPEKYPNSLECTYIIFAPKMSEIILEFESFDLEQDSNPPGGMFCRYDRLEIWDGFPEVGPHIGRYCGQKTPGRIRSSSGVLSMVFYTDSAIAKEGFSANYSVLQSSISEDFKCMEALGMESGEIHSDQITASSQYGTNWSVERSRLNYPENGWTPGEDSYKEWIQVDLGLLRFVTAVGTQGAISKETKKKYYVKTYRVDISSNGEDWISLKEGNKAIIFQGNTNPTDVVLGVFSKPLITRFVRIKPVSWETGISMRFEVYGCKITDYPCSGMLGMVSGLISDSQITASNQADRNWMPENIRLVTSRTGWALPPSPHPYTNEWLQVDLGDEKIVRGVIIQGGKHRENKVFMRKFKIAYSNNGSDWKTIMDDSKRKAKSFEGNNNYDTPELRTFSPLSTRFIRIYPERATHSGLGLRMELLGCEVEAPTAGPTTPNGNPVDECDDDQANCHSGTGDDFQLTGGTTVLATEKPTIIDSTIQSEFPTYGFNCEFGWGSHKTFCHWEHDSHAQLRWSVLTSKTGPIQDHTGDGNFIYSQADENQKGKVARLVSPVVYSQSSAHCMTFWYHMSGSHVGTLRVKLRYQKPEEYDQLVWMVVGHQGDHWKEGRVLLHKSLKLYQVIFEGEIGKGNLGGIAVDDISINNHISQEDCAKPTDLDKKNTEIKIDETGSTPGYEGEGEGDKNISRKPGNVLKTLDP
T5 sequence (P97333 22-856): as above

- Absorbance (NRP-1 peptide (Npep) [8]): 0.05
- Absorbance [9]: 0.073
- Absorbance [10]: 0.084
- percentage of binding [4]: 0.14%
- percentage of binding [5]: 0.17%
- percentage of binding [6]: 0.063%
- percentage of binding [7]: 0.1%
Molecule: hIgG1 isotype control (antibody)

- Absorbance (NRP-1 peptide (Npep) [11]): 0.684
- Absorbance [12]: 0.799
- Absorbance [13]: 0.72
- percentage of binding [14]: 11.5%
- percentage of binding [15]: 13.1%
- percentage of binding [16]: 69.1%
- percentage of binding [17]: 85.3%
- delta (% of control) [18]: -1.6%
- delta (% of control) [19]: -16.2%
B2: variant 6 a-NRP1_LEP n° 1 (antibody, V domains shown)
VH: EVQLVESGGGLVQPGGSLRLSCAASGFTFSSYSMHWVRQAPGKGLEWVSYISSGSSTIHYADSVKGRFTISRDNAKNSLYLQMNSLRAEDTAVYYCARRHYGSSRYWYFDVWGQGTTVTVSS
VL: DIQMTQSPSTLSASVGDRVTITCRASQSIKSYLAWYQQKPGKAPKLLIYYASSLASGVPSRFSGSGSGTEFTLTISSLQPDDFATYYCQQYGESSYTFGQGTKLEIK
notes: humanized variant of 21B10; isotype control hIgG4; also called Var6; variant no 6

The next lines start with the molecule.

Molecule: mIgG2b isotype control (antibody)
- percent of bound cells [1]: 3.65%
- percent of bound cells [2]: 6.66%
- percent of bound cells [3]: 14.4%
- percentage of binding [4]: 0.28%
- percentage of binding [5]: 0.086%
- percentage of binding [6]: 0.66%
- percentage of binding [7]: 0.45%

Molecule: hIgG4 isotype control (antibody)
- percent of bound cells [1]: 2.04%
- percent of bound cells [2]: 3.3%
- percent of bound cells [3]: 4.04%
- Absorbance (NRP-1 peptide (Npep) [8]): 0.055
- Absorbance [9]: 0.073
- Absorbance [10]: 0.064
- percentage of binding [4]: 0.24%
- percentage of binding [5]: 0.2%
- percentage of binding [7]: 0.47%

B1: variant 8 a-NRP1_LEP n° 1 (antibody, V domains shown)
VH: B2 VH
VL: EIVLTQSPATLSLSPGERATLSCRASQSVKSYLAWYQQKPGQAPRLLIYYASSRATGIPARFSGSGSGTDFTLTISSLEPEDFAVYYCQQYSESPYTFGQGTKLEIK
notes: humanized variant of 21B10; isotype control hIgG4; also called Var8; variant no 8
- Absorbance (NRP-1 peptide (Npep) [11]): 0.475
- Absorbance [12]: 0.59
- Absorbance [13]: 0.412
- percentage of binding [14]: 9.88%
- percentage of binding [15]: 13.3%
- percentage of binding [16]: 61.5%
- percentage of binding [17]: 75.6%
- delta (% of control) [18]: -3.42%
- delta (% of control) [19]: -14.1%

B3: a-NRP1_SEM (antibody, from another filing, V domains shown)
VH: EVQLVESGGGLVQPGGSLRLSCAASGFSFSSEPISWVRQAPGKGLEWVSSITGKNGYTYYADSVKGRFTISADTSKNTAYLQMNSLRAEDTAVYYCARWGKKVYGMDVWGQGTLVTVSS
VL: DIQMTQSPSSLSASVGDRVTITCRASQSISSYLAWYQQKPGKAPKLLIYGASSRASGVPSRFSGSGSGTDFTLTISSLQPEDFATYYCQQYMSVPITFGQGTKVEIKR
- Absorbance (NRP-1 peptide (Npep) [8]): 0.063
- Absorbance [9]: 0.407
- Absorbance [10]: 0.431
- percentage of binding [20]: 97.7%
- percentage of binding [21]: 96.6%
- percentage of binding [22]: 99.9%
- percentage of binding [23]: 100%
- delta (% of control) [24]: 1.1%
- delta (% of control) [25]: -0.1%
